# Earlier results, collected in paper doi:10.1101/2021.10.04.463074.
# Molecular target: Asp85 (UniProt position 98, WARYADWLFTT)
# Conditions: resting (ground) state of bR, protonated Schiff base, all-trans retinal
substance,measurement,value
Bacteriorhodopsin (bR) (Halobacterium salinarum (named Halobacterium halobium only in titles of cited references)),pKa,2 to 3
